The source of these data is the DeepSol protein solubility set.

A short description of this series: soluble on expression in E. coli; label from the status in PepcDB or PDB records.
As to “SVTDNNGAVKFPQLCKFCDVRFSTCDNQKSCMSNCSITSICEKPQEVCVAVWRKNDENITLETVCHDPKLPYHDFILEDAASPKCIMKEKKKPGETFFMCSCSSDECNDNIIFSEEYNTSNPD”, the “soluble on expression in E. coli” value is given as “soluble”.
Consider “SVYTYFSAVAGQDGEVDAEELQRCLTQSGINGTYSPFSLETCRIMIAMLDRDHTGKMGFNAFKELWAALNAWKENFMTVDQDGSGTVEHHELRQAIGLMGYRLSPQTLTTIVKRYSKNGRIFFDDYVACCVKLRALTDFFRKRDHLQQGSANFIYDDFLQGTMAI”, for which the “soluble on expression in E. coli” value is given as “soluble”.
Turning to “TAAVALVKANENAAAILNLKNAIQKTNAAVADVVQATQSLGTAVQAVQDHINSVVSPAITAANY”, the “soluble on expression in E. coli” value is “soluble”.
The same measure for “TDKVTDADLETLRKLQEEFATELAISRGRVDALEARSADIQAQQFSPNVVLGGQTIFGLAGGFGGNRPGDGEANTIFTYLTQLQLASSFTGKDRFRVGLISGNAANNSFENLQAFNTNMARLAWQGNYDNQVSINSVEYRVAGLGDRVVFTFKPVGFSLGSVLSPNSIYADAGQGAISAFAGSTPILRIGNLDAGLGFDWLLSDEIRLQFAYGTRGSSDSNQGLFGADHSALGLQFLYKPTPSLITGLAYINAYSSDGHLDTGTGSSNADTSGGINEPSQIHALNASMRWQLTNKLVLGAWGGVMVTDSLKSDAVVLSSTYTVSLGIYDPFGRKGDLFGFLYGLPPKLNNGVLIPTADTGNSTHYEVFYRYLVNDNIAITPGFFLVTDPGHISSNNDIFIGAIRTTFNF”: “not soluble”.
For “TDVATVVSQAKAQMKEAYYTYSHTVTETGQFPDIKDVYAAYNKAKQAYANAVAVVNKAGGAKKDAYLADLQAIYETYVFKANPKSGEARVATYIDAYNYATKLDKMRQELKAAVDAKDLKKAEELYHKISYELKTRTVILDRVYGQSTRELLRSTFKADAQALRDRLIYDITVAMKAREAQDAVKAGNLDKAKAALDQVNQYVSKVTDAFKAELQKAAQDAKAAYEAALTPKVESVSAIDSTSFKVTFTKPVDKATAIPKNFSITLKGTETKLYPKSVEVSESGLTATVTLYDTLVDGKTYTVVTSGLKDTAGKEFETSTNEFTYNKPVPASITFNFNKLPEDSAVDLTKYVTVKDAAGNVIKSGFELEFTSSEKLTQGKFINTTGKKSVIVNATVKGTNVTTGNVILAVED” the value was “soluble”.
For “TEPPGVIIVGESEFSFHLGINLRDHGIPVMMFNLFENTSEKAHEAGFEVFKGNLLSSNDRIYSDLLRYNKCILMTQSFIFNSLAFNELVPEFGLNNVDMMPVSFNDEQARNNLNGPIRNHILFDENHTPRWFNQFITQHNIVEVPAEDYEKITEN”, the “soluble on expression in E. coli” value was “not soluble”.
Consider “TEQKQKHMEQLSDKNGIISALAFDQRGALKRLMAKYQSEEPTVSQIEALKVLVAEELTPYASSMLLDPEYGLPATKVLDDNAGLLLAYEKTGYDTSSTKRLPDCLDIWSAKRIKEEGADAVKFLLYYDVDSSDEVNEEKEAYIERIGSECVAEDIPFFLEILSYDEKITDSSGIEYAKIKPRKVIEAMKVFSNPRFNIDVLKVEVPVNMDYVEGFAQGETAYNKATAAAYFREQDQATLLPYIFLSAGVPAQLFQETLVFAKEAGAKFNGVLCGRATWAGSVKEYVEKGEAGARQWLRTIGFQNIDELNKILQKTATSWKE”, for which the “soluble on expression in E. coli” value was “soluble”.
Regarding “TESVYITTPYLIIDYDLTETIKNAAMRGVDVRIITPYIPDKKFIQLVTRGAYPDLLSAGVRIYEYSPGFIHSKQMLVDEDFAVVGTINLDYRSLVHHYENAVLLYKTPSIREIARDFRNIFADSQEVYPHSIKT”, the “soluble on expression in E. coli” value is reported as “not soluble”.
In the case of “TIDAQLQKRAEQAFGDQAGAAVVMEVNTGEILAFVSNPEFDPALFAGRMPPEIWKQYLEDKRHPLENKALKGQYPPGSTYKIITALAGLEEGIIDDHTTVTCKGSYALGNTTFRCWDKKGHGAVDLRRALRESCDVYFYVLGEKLGIDRLSAYAQKFALGAPMGVGLDNEKGGLIPTSAWKLQRHKTRWFQGDTLSAAIGQGYVLMTPIQLASMTAAIATDGIVYRPRLVKRIIDRDGKVLREFQPEIITRADISPRSFKSVKEGLWAVVNESGGTGGMSRIPDVRVAGKTGTSQVVKLRDTRGFIPYQYRDHALFVAYAPYEHPEVAVAVVIEHGEHGGSAAAPIAGSILRAYFEGKGVIRR”, the “soluble on expression in E. coli” value is given as “not soluble”.
